In PMC10653858 (mBio, 2023):

B1: histone H3 peptide P1 (15-mer, residues 3-17), NH2-TKQTARKSTGGKAPR-COOH (peptide)
peptide: H-TKQTARKSTGGKAPR-OH
notes: also called 15-mer peptide; (3-17)-N-terminal H3 P1 peptide

Target: LegAS4 (84–532aa), RomA homolog of L. pneumophila strain Philadelphia (L. pneumophila strain Philadelphia, UniProt Q5ZUS4 84-532)
Assay: crystal structure
Details: both partners purified

Row | Binder | binding result
1 | H-ARTKQTARKSTG-OH (also called 12-mer peptide) [histone H3 peptide P2 (12-mer, residues 1-12), NH2-ARTKQTARKSTG-COOH] | binds
2 | B1 | binds
